Data: US9644034B2, “Anti-RSPO2 antibodies and uses thereof” (OncoMed Pharmaceuticals, Inc., priority 2011, dated 2017)

Legend:
human RSPO2 [1] = biological target: T1, human RSPO2 (Homo sapiens, UniProt Q6UXX9); assay: FACS screening of hybridoma supernatants on HEK-293 cells expressing FLAG-RSPO2furin-CD4TM-GFP; assay type: binding
T1 construct: followed by the furin-like domains of RSPO2 (aa 31-146); expressed in transfected cells; host or cells: HEK-293
Text: Antibodies were generated against recombinant human RSPO2 protein amino acids 22-205 (R&D Systems, Minneapolis, Minn.). Mice (n=3) were immunized with RSPO2 protein using standard techniques. Sera from individual mice were screened against RSPO2 approximately 70 days after initial immunization using FACS analysis. The animal with the highest antibody titer was selected for final antigen boost after which spleen cells were isolated for hybridoma production. SP2/0 cells were used as fusion partners for the mouse spleen cells. Hybridoma cells were plated at 1 cell per well in 96 well plates, and the supernatants were screened against human RSPO2 by FACS analysis.
As described in Example 5, for FACS screening of anti-RSPO2 antibodies a chimeric fusion protein enabling cell surface expression of the N-terminal furin-like domains of human RSPO2 was constructed. Similar to what is depicted in FIG. 5A for RSPO1, the RSPO2 fusion protein contains a N-terminal FLAG tag, followed by the furin-like domains of RSPO2 (aa 31-146) and fused to the transmembrane and intracellular domain of human CD4 and a C-terminal green fluorescent protein tag (FLAG-RSPO2furin-CD4TM-GFP).
HEK-293 cells were transfected with FLAG-RSPO2furin-CD4TM-GFP. […] The cells were analyzed on a FACSCalibur instrument (BD Biosciences, San Jose, Calif.) and the data was processed using FlowJo software.

[2] = tested on: RSPO2-induced β-catenin signaling; assay: TOPflash luciferase assay in HEK-293 cells, Wnt3a plus human RSPO2; assay type: cell-based; details: Wnt3a 5 ng/ml, RSPO2 10 ng/ml
Method: (§1) HEK-293 cells were transfected with a 6×TCF-luciferase reporter vector (TOPflash, Millipore, Billerica, Mass.). After 24-48 hrs, the transfected HEK-293 cells were incubated with a combination of Wnt3a (5 ng/ml) and human RSPO2 (10 ng/ml, R&D BioSystems) or human RSPO3 (10 ng/ml, R&D BioSystems) in the presence of anti-RSPO2 antibodies 130M23, 130M24, 130M25, 130M26, 130M27, and 130M28. Cells were incubated with a combination of Wnt3a and RSPO, Wnt3a only or with no addition as controls. The cells were incubated for 16 hours and luciferase activity was measured using Steady-Glo® Luciferase Assay System according to the manufacturer's instructions (Promega, Madison, Wis.).

[3] = tested on: β-catenin signaling induced by RSPO3; assay: TOPflash luciferase assay in HEK-293 cells, Wnt3a plus human RSPO3; assay type: cell-based; details: Wnt3a 5 ng/ml, RSPO3 10 ng/ml
Method: as §1

binding of RSPO2 to LGR5 = biological target: T2, binding of RSPO2 to LGR5 (Homo sapiens, UniProt Q6UXX9); assay: FACS: blocking of soluble RSPO2-Fc binding to LGR5 on HEK-293 cells; details: RSPO2-Fc 10 μg/ml
T2 construct: full-length human RSPO1, RSPO2, RSPO3 and RSPO4 were ligated in-frame to a human Fc region; made in house; host or cells: RSPO2-Fc: insect cells (baculovirus); LGR5 construct: transiently transfected HEK-293
Method: HEK-293 cells were transiently transfected with the FLAG-LGR5-CD4TM-GFP construct (previously described in Example 2). After 48 hours, transfected cells were suspended in ice cold PBS containing 2% FBS and heparin and incubated on ice in the presence of RSPO2-Fc protein (10 μg/ml) and antibodies 130M23, 130M24, 130M25, 130M26, 130M27, and 130M28. A second incubation with 100 μl PE-conjugated anti-human Fc secondary antibody was performed to detect cells bound by the RSPO2-Fc fusion protein. The cells were analyzed on a FACSCalibur instrument (BD Biosciences, San Jose, Calif.) and the data was processed using FlowJo software.

β-catenin signaling = assay: Luciferase assay in STF-293 cells with LU2 cells, lung tumor cell-conditioned medium and Wnt3a-L cell-conditioned medium; assay type: cell-based, human
Method: Conditioned medium from human lung tumor LU2 cells was prepared as described in Example 3 and soluble LGR5-Fc was produced as described in Example 2.
STF-293 cells were incubated with LU2 cells plus 25% lung tumor cell-conditioned medium plus 25% Wnt3a-L cell-conditioned medium. Antibody 130M23 and soluble LGR5-Fc were added to the cells in 5-fold serially dilutions from 50 μg/ml to 0.0006 μg/ml. An irrelevant monoclonal antibody, similarly diluted, and a control Fc fusion protein (50 ug/ml) were used as negative controls. The cells were incubated for 20 hours and luciferase activity was measured using Steady-Glo® Luciferase Assay System according to the manufacturer's instructions (Promega, Madison, Wis.).

[4] = tested on: PN31 pancreatic tumor cells; assay: PN31 pancreatic tumor xenograft growth in NOD/SCID mice; assay type: in vivo; details: antibodies 15 mg/kg once a week, intraperitoneal
Method: Dissociated PN31 pancreatic tumor cells (1×10^5cells) were injected subcutaneously into the flanks of 6-8 week old NOD/SCID mice. Tumors were allowed to grow for 61 days until they reached an average volume of 120 mm^3. The mice were randomized (n=10 per group) and treated with anti-RSPO1 antibody 89M5, anti-RSPO2 antibody 130M23, gemcitabine, a combination of 89M5 and gemcitabine, a combination of 130M23 and gemcitabine, or control antibody 1B7.11. Antibodies were dosed at 15 mg/kg once a week, and gemcitabine was dosed at […] once a week. Administration of the antibodies and gemcitabine was performed via injection into the intraperitoneal cavity. Tumor growth was monitored and tumor volumes were measured with electronic calipers at specific time points. Data are expressed as mean±S.E.M.

[5] = tested on: PN7 pancreatic tumor cells; assay: PN7 pancreatic tumor xenograft growth in NOD/SCID mice; assay type: in vivo
Method: Dissociated PN7 pancreatic tumor cells (1×10^5cells) were injected subcutaneously into the flanks of 6-8 week old NOD/SCID mice. Tumors were allowed to grow for 25 days until they reached an average volume of 130 mm^3. The mice were randomized (n=10 per group) and treated with anti-RSPO2 antibody 130M23, anti-FZD antibody 18R5, gemcitabine, a combination of 130M23 and gemcitabine, a combination of 18R5 and gemcitabine, a combination of 130M23 and 18R5, a combination of 130M23, 18R5 and gemcitabine, or control antibody 1B7.11. Anti-RSPO2 antibody 130M23 was dosed at 10 mg/kg once a week, anti-FZD antibody 18R5 was dosed at 20 mg/kg once a week, and gemcitabine was dosed at […] once a week. Administration of the antibodies and gemcitabine was performed via injection into the intraperitoneal cavity. Tumor growth was monitored and tumor volumes were measured with electronic calipers at specific time points. Data are expressed as mean±S.E.M. A parallel set of experiments included mice treated with a FZD8-Fc soluble receptor (10 mg/kg) in combination with gemcitabine and FZD8-Fc in combination with 130M23 and gemcitabine.

PN7 tumors = assay: Serial transplantation of cells from treated PN7 tumors (tumorigenicity); assay type: in vivo, NOD-SCID mice; details: 90 cells injected, 40 days growth with no treatment; vs control antibody
Method: The PN7 tumors described above were processed to yield single cell suspensions. Mouse cells were depleted from the cell mixtures using biotinylated anti-H2K^d and anti-CD45 antibodies and streptavidin-conjugated magnetic beads. The remaining human tumor cells were serially transplanted into a new cohort of mice. 90 tumor cells from each treatment group were injected into the flanks of NOD-SCID mice (n=10 mice per group). Tumors were allowed to grow for 40 days with no treatment and tumor volumes were measured with electronic calipers.

human RSPO2 [6] = biological target: T1, human RSPO2; assay: FACS binding of 130M23 and humanized 130M23 to HEK293 cells expressing FLAG-RSPO2furin-CD4TM-GFP; details: five-fold serial dilutions
Method: HEK293 cells were transiently transfected with an expression vector encoding FLAG-RSPO2furin-CD4TM-GFP. As described in Example 11, FLAG-RSPO2furin-CD4TM-GFP is a chimeric fusion protein enabling cell surface expression of the N-terminal furin-like domains of human RSPO2. FLAG-RSPO2furin-CD4TM-GFP transfected cells were incubated in the presence of anti-RSPO2 antibody 130M23 or humanized anti-RSPO2 antibody […]. Five-fold serial dilutions of each antibody were examined for their ability to bind to the RSPO2 expressing cells. The cells were stained with Phycoerythrin conjugated anti-IgG to reveal bound antibody. The cells were analyzed on a FACSCalibur instrument (BD Biosciences, San Jose, Calif.) and the data was processed using FlowJo software.

T1 sequence (Q6UXX9 31-146): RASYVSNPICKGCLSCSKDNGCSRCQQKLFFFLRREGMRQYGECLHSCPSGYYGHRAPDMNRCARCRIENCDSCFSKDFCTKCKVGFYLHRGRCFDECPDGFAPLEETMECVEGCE
T2 sequence (Q6UXX9 22-243 L186P): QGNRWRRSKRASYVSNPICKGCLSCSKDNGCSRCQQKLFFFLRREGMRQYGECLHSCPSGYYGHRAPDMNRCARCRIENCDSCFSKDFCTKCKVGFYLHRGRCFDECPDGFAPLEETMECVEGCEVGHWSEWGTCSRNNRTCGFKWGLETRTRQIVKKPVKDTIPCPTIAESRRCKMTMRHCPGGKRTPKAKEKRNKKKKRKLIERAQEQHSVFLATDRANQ

binding to RSPO2 (FACS) (human RSPO2 [1]): bound
blocking of binding of RSPO2 to LGR5 (binding of RSPO2 to LGR5): blocked
binding to human RSPO2 (FACS) (human RSPO2 [6]): bind
B1: 130M23: anti-RSPO2 monoclonal antibody, hybridoma ATCC PTA-12021; variable regions SEQ ID NO:27 and SEQ ID NO:28 (antibody, V domains shown)
VH: EVKLVESGGGLVKPGGSLKFSCAASGFSFSSYAMSWVRQTPEKRLEWVASISSGGSTYYPDSVKGRFTISRDNVRNILYLQMSSLRSEDTAMYFCARGGDPGVYNGDYEDAMDYWGQGTSVTVSS
VL: DIVMTQSHKFMSTSVGDRVSITCKASQDVSSAVAWYQQKPGQSPKLLIYWASTRHTGVPDRFTNSGSGTDYTLTISSVQAEDLALYYCQQHYSTPWTFGGGTKLEIK
modifications: 130M23 Heavy chain variable region; 130M23 Light chain variable region
effect on RSPO2-induced β-catenin signaling [2]: completely blocked
blocking of β-catenin signaling induced by RSPO3 [3]: did not block
induction of luciferase activity by lung tumor cell-conditioned medium and Wnt3a-conditioned medium (β-catenin signaling; increasing concentrations, 50 to 0.0006 μg/ml): reduced
potency relative to LGR5-Fc (β-catenin signaling; more potent than LGR5-Fc): greater than 100 fold
effect on tumor growth as single agents [4]: only a minimal effect
proliferation (anti-Ki67 antibody IHC) ([5]; PN7 tumors of treated mice): significant decrease in proliferation
morphology of PN7 tumors (IHC) ([5]; treated vs untreated mice): induced morphological changes
reduction in tumor growth ([5]; vs control antibody, 130M23 10 mg/kg, 18R5 20 mg/kg, gemcitabine once a week, intraperitoneal): approximately 55%
tumorigenicity of cells isolated from treated mice (PN7 tumors): greatly decreased tumorigenicity
